Values of other authors in PMC2666074 (Biochemistry, 2008).

Test system: β-catenin in HEK293 cells
Details: no detectable levels of S100A6, ref Matsuzawa and Reed (2001)

B1: Siah-1: Siah-1 overexpressed by transient transfection of pSiah-1-FLAG (protein, UniProt Q8IUQ4 1-282, looked up)
E3 ubiquitin-protein ligase …: MSRQTATALPTGTSKCPPSQRVPALTGTTASNNDLASLFECPVCFDYVLPPILQCQSGHLVCSNCRPKLTCCPTCRGPLGSIRNLAMEKVANSVLFPCKYASSGCEITLPHTEKADHEELCEFRPYSCPCPGASCKWQGSLDAVMPHLMHQHKSITTLQGEDIVFLATDINLPGAVDWVMMQSCFGFHFMLVLEKQEKYDGHQQFFAIVQLIGTRKQAENFAYRLELNGHRRRLTWEATPRSIHEGIATAIMNSDCLVFDTSIAQLFAENGNLGINVTISMC
modifications: FLAG tag
- level of β-catenin upon Siah-1 transfection, in words: reduced levels of β-catenin
